Here are results for 2 molecules from US20220396635A1 (UNIVERSIT T STUTTGART, published 2022).

Experiment [1] addresses T1, EGFR (UniProt P00533 25-1210, limits assumed).
T1 construct: whole, on cells; the cell lines are human tumor lines
Kind of experiment: flow cytometry, serial dilution on T-47-D cells (EGFR-expressing), PE anti-human Fc detection. The method, then: (§1) Binding analysis of the trivalent, bispecific antibodies was performed by flow cytometry using tumor cell lines with different EGFR-expression levels (FIG. 20) (Table 12). Adherent cells were washed with PBS and shortly trypsinized at 37° C. Trypsin was quenched with FCS-containing medium and removed by centrifugation (500×g, 5 min.). Target cells (FaDu, LIM1215, SKBR-3, T-47-D, MCF-7 and Jurkat cells) at 1×10⁵ cells/well were incubated with a serial dilution of trivalent, bispecific antibodies for 1 h at 4° C. After removing excess of recombinant protein by washing with PBA (PBS, 2% FBS, and 0.02% sodium azide), bound protein was detected using PE-conjugated anti-human Fc mAb (Jackson ImmunoResearch Laboratories Inc). Fluorescence was measured using MACSquant VYB (Miltenyi Biotec) and data were analyzed using FlowJo (Tree Star). Relative median fluorescence intensities (MFI) were calculated as followed: relative MFI=((MFIₛₐₘₚₗₑ-(MFIdetection-MFIcells))/MFIcells).
In general terms: Flow cytometry measures light scatter and fluorescence of single cells or particles in a stream.

The target in experiment [2] is T1, EGFR. Kind of experiment: flow cytometry, serial dilution on LIM1215 cells (EGFR-expressing), PE anti-human Fc detection. On the procedure: as §1
Experiment [3] deals with T1, EGFR. Kind of experiment: flow cytometry, serial dilution on FaDu cells (EGFR-expressing), PE anti-human Fc detection. The method, then:
as §1

The target in experiment [4] is T1, EGFR. In words: flow cytometry, serial dilution on MCF-7 cells (EGFR-expressing), PE anti-human Fc detection. On the procedure:
as §1

Experiment [5] addresses T1, EGFR. Kind of experiment: flow cytometry, serial dilution on SKBR-3 cells (EGFR-expressing), PE anti-human Fc detection. The method, then: as §1

B1: scDb/Fab-Fc (1-1)+2, trivalent bispecific anti-EGFRxanti-CD3 (bispecific antibody)
chain: EVQLVESGGGLVQPGGSLRLSCAASGFSLTNYGVHWVRQAPGKGLEWLGVIWSGGNTDYNTPFTSRFTISRDNSKNTLYLQMNSLRAEDTAVYYCARALTYYDYEFAYWGQGTTVTVSSGGGGSDIQLTQSPSFLSASVGDRVTITCRASQSIGTNIHWYQQKPGKAPKLLIKYASESISGVPSRFSGSGSGTEFTLTISSLQPEDFATYYCQQNNNWPTTFGAGTKLEIKRGGGGSGGGGSGGGGSEVQLVESGGGLVQPGGSLRLSCAASGFSLTNYGVHWVRQAPGKGLEWLGVIWSGGNTDYNTPFTSRFTISRDNSKNTLYLQMNSLRAEDTAVYYCARALTYYDYEFAYWGQGTTVTVSSGGGGSDIQLTQSPSFLSASVGDRVTITCRASQSIGTNIHWYQQKPGKAPKLLIKYASESISGVPSRFSGSGSGTEFTLTISSLQPEDFATYYCQQNNNWPTTFGAGTKLEIKRAAADKTHTCPPCPAPPVAGPSVFLFPPKPKDTLMISRTPEVTCVVVDVSHEDPEVKFNWYVDGVEVHNAKTKPREEQYNSTYRVVSVLTVLHQDWLNGKEYKCKVSNKGLPSSIEKTISKAKGQPREPQVCTLPPSRDELTKNQVSLSCAVKGFYPSDIAVEWESNGQPENNYKTTPPVLDSDGSFFLVSKLTVDKSRWQQGNVFSCSVMHEALHNHYTQKSLSLSPGK
heavy: QVQLVQSGAEVKKPGSSVKVSCKASGGTFSGYTMNWVRQAPGQGLEWMGLINPYKGVSTYNGKFKDRVTITADKSTSTAYMELSSLRSEDTAVYYCARSGYYGDSDWYFDVWGQGTLVTVSSASTKGPSVFPLAPSSKSTSGGTAALGCLVKDYFPEPVTVSWNSGALTSGVHTFPAVLQSSGLYSLSSVVTVPSSSLGTQTYICNVNHKPSNTKVDKKVEPKSCDKTHTCPPCPAPPVAGPSVFLFPPKPKDTLMISRTPEVTCVVVDVSHEDPEVKFNWYVDGVEVHNAKTKPREEQYNSTYRVVSVLTVLHQDWLNGKEYKCKVSNKGLPSSIEKTISKAKGQPREPQVYTLPPCRDELTKNQVSLWCLVKGFYPSDIAVEWESNGQPENNYKTTPPVLDSDGSFFLYSKLTVDKSRWQQGNVFSCSVMHEALHNHYTQKSLSLSPGK
light: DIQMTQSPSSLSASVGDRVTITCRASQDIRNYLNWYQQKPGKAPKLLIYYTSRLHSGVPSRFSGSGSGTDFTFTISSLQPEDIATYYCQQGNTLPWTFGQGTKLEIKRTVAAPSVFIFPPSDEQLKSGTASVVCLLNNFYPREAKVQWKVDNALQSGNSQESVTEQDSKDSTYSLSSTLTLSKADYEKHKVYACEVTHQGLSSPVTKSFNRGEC
One may read the EC50 as the concentration that produces a half-maximal response. Read a high EC50 as weaker potency. As to B1, the EC50 with EGFR [1] was 0.2 nM; in the experiment with EGFR [2], 2.6 nM; with EGFR [3] it was 3.6 nM; with EGFR [4], 0.5 nM; with EGFR [5], 0.8 nM.

B2: scDb/scFv-Fc (1-1)+2, trivalent bispecific anti-EGFRxanti-CD3 (bispecific antibody)
chain 1: EVQLVESGGGLVQPGGSLRLSCAASGFSLTNYGVHWVRQAPGKGLEWLGVIWSGGNTDYNTPFTSRFTISRDNSKNTLYLQMNSLRAEDTAVYYCARALTYYDYEFAYWGQGTTVTVSSGGGGSDIQLTQSPSFLSASVGDRVTITCRASQSIGTNIHWYQQKPGKAPKLLIKYASESISGVPSRFSGSGSGTEFTLTISSLQPEDFATYYCQQNNNWPTTFGAGTKLEIKRGGGGSGGGGSGGGGSEVQLVESGGGLVQPGGSLRLSCAASGFSLTNYGVHWVRQAPGKGLEWLGVIWSGGNTDYNTPFTSRFTISRDNSKNTLYLQMNSLRAEDTAVYYCARALTYYDYEFAYWGQGTTVTVSSGGGGSDIQLTQSPSFLSASVGDRVTITCRASQSIGTNIHWYQQKPGKAPKLLIKYASESISGVPSRFSGSGSGTEFTLTISSLQPEDFATYYCQQNNNWPTTFGAGTKLEIKRAAADKTHTCPPCPAPPVAGPSVFLFPPKPKDTLMISRTPEVTCVVVDVSHEDPEVKFNWYVDGVEVHNAKTKPREEQYNSTYRVVSVLTVLHQDWLNGKEYKCKVSNKGLPSSIEKTISKAKGQPREPQVCTLPPSRDELTKNQVSLSCAVKGFYPSDIAVEWESNGQPENNYKTTPPVLDSDGSFFLVSKLTVDKSRWQQGNVFSCSVMHEALHNHYTQKSLSLSPGK
chain 2: DIQMTQSPSSLSASVGDRVTITCRASQDIRNYLNWYQQKPGKAPKLLIYYTSRLHSGVPSRFSGSGSGTDFTFTISSLQPEDIATYYCQQGNTLPWTFGQGTKLEIKRGGGGSGGGGSGGGGSQVQLVQSGAEVKKPGSSVKVSCKASGGTFSGYTMNWVRQAPGQGLEWMGLINPYKGVSTYNGKFKDRVTITADKSTSTAYMELSSLRSEDTAVYYCARSGYYGDSDWYFDVWGQGTLVTVSSAAADKTHTCPPCPAPPVAGPSVFLFPPKPKDTLMISRTPEVTCVVVDVSHEDPEVKFNWYVDGVEVHNAKTKPREEQYNSTYRVVSVLTVLHQDWLNGKEYKCKVSNKGLPSSIEKTISKAKGQPREPQVYTLPPCRDELTKNQVSLWCLVKGFYPSDIAVEWESNGQPENNYKTTPPVLDSDGSFFLYSKLTVDKSRWQQGNVFSCSVMHEALHNHYTQKSLSLSPGK
notes: also called scDbhu225xhu225-Fc(hole)Δab + scFvhuU3-Fc(knob)Δab
For the molecule B2, the EC50 came out at 0.4 nM in the experiment with EGFR [1]; 4 nM with EGFR [2]; 8.9 nM with EGFR [3]; 0.8 nM in the experiment with EGFR [4]; 2.8 nM in the experiment with EGFR [5].
